Data published in the supplement of paper PMC10567573.
± gives the standard deviation.

Experiment: protein stability index of a GFP-peptide fusion (GPS, HEK-293T) (PSI 1-6); higher = more stable
[1] = treatment: DMSO, c terminus: a fixed tail appended
[2] = treatment: MLN4924 1 uM, 8 h, c terminus: a fixed tail appended
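Note: 24-mer peptide tiles fused after GFP, lentivirally expressed, FACS-sorted into six equal bins by GFP/DsRed ratio, decoded by Illumina sequencing, PSI is the read-weighted mean bin number.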

Sequence	protein stability index [1]	protein stability index [2]	protein stability index (treatment: DMSO, c terminus: native)	protein stability index (treatment: MLN4924 1 uM, 8 h, c terminus: native)
LERKCEKRSVYIDARDEELEKDTM [ZC3H15]	4.93 ± 0.49	4.9 ± 0.075		
IGTPPSVLKRQRKRRVALSPVTEN [MYBL2]	4.22 ± 0.56	4.49 ± 0.14		
SDSDSELSSSEGLEPGSADPLANG [PSD2]	5.5 ± 0.35	5.59 ± 0.14		
ACIVVLDRTSHRLHTANLGDSGFL [PPTC7]	2.68 ± 0.48	2.24 ± 0.43		
KRKTFNKVLGHVNNILISAVLPTA [GDAP1]	2.49 ± 0.14	2.42 ± 0.076		
GMRYAFIGPLETMHLNAEGMLSYC [CRYL1]	2.56 ± 0.62	2.72 ± 0.74		
LIYMVTIMGNLLIIVTIMASQSLG [OR4A15]	3.18 ± 0.43	3.1 ± 0.29		
GPVRPAIPPPLSSVYAWGGGLGTP [NEK8]	3.18 ± 0.2	3.18 ± 0.27		
RYADLEAVNRARRPLARPIKRGDI [RHOBTB1]	3.6 ± 0.4	3.83 ± 0.12		
LPSVPVSVPASDPRSCSSGPAGPY [PLEKHN1]	4.35 ± 0.21	4.39 ± 0.17		
ALLEGEKALWEDKTSLWEEENALW [CCDC70]	3.41 ± 0.27	3.73 ± 0.33		
VLALADEAGYYFFNGNYKVDSPKN [ADAMTSL2]	2.7 ± 0.23	2.86 ± 0.3		
AQLRLQLEVSQLEGSLQQPKAQSA [SMG5]	3.66 ± 0.24	3.7 ± 0.28		
HDEDIKTTNVKSASRQKTSLGIEL [ZNF396]	4.5 ± 0.27	4.58 ± 0.14		
EEERAQDRIATTDDTTAMASASSS [MAGEA10]	5.66 ± 0.17	5.42 ± 0.1		
RLKEYTIKSHSSLPPNNSYADFER [DAPK3]	3.58 ± 0.26	3.61 ± 0.25		
ISESMAACTRSLLGDPPPLLTLPR [HDAC6]	2.98 ± 0.14	3.29 ± 0.41		
REWYYGNVTRHQAECALNERGVEG [NCK2]	3.33 ± 0.12	3.68 ± 0.16		
KIAQNLDFVNLMAYDFHGSWEKVT [CHIT1]	2.42 ± 0.35	2.18 ± 0.39		
DLKPENILFVNSEFETLYNEHKSC [CLK3]	3.38 ± 0.37	3.48 ± 0.26		
LLDKTCDQVMEFSWSALWNITDET [ZER1]	2.37 ± 0.28	2.35 ± 0.34		
VIVQIKQPRKKYVQRKSDFDQTVF [NETO1]	2.09 ± 0.3	2.09 ± 0.076		
VENECYQVFLDRINRADYCPECYP [TOR1AIP2]	2.43 ± 0.42	2.62 ± 0.27		

Sequence	protein stability index [1]	protein stability index [2]	protein stability index (treatment: DMSO, c terminus: native)	protein stability index (treatment: MLN4924 1 uM, 8 h, c terminus: native)
MVGLILGPFGINHGIELHSDVVEY [PCMTD1]	2.68 ± 0.65	2.85 ± 0.52		
KFSQNSHLIKHRRTHTGEQPYTCS [ZNF75A]	2.93 ± 0.14	3 ± 0.34		
GLSHSHDLSMDGLFGTIAYLPPER [RIPK4]	3.28 ± 0.32	3.42 ± 0.25		
WGCDLGVVTRVVTGVYPRCLHASQ [BRF1]	2.89 ± 0.8	2.3 ± 0.46		
KFLMARKFDVLRAIELFHSYRETR [PTPN9]	2.29 ± 0.54	2.15 ± 0.15		
IIGDYFSDQDPRVRTAAIKAMLQL [INTS4]	2.19 ± 0.28	2.33 ± 0.2		
TRGFLRSPSSDLDTDAEGDDFELL [RETREG3]	5.24 ± 0.17	5.29 ± 0.2		
FQQNHLFWLQNSSPSSDRVSAIIW [PHTF1]	2.26 ± 0.6	2.43 ± 0.49		
MAAPEERDLTQEQTEKLLQFQDLT [FAF2]	5.13 ± 0.29	5.16 ± 0.2		
ADLENEDIFPELDDILYHVKGMQR [DLC1]	3.7 ± 0.13	3.72 ± 0.34		
KGLNARMMRGLSYSLTTSSTHKSS [RAB40A]	3.39 ± 0.28	3.52 ± 0.32		
LREIPETTPIEEVKGLFKSENCPK [LARP4]	5.06 ± 0.19	5.1 ± 0.33		
LYPAVSAVWGQCQVRIRYLGERRA [SPSB2]	2.56 ± 0.19	2.62 ± 0.38		
RLEDKVKTLKAENAGLSSTAGLLR [JUNB]	3.7 ± 0.22	3.97 ± 0.3		
DDNSCEDLEEERREEEEKTPPETK [PCMTD2]	5.73 ± 0.34	5.54 ± 0.25		
PTPANEERRGGLPPLPLHPGGDQG [WAS]	5.38 ± 0.22	5.39 ± 0.065		
EKAKAFWAMRRSYEAIAKHNQVEA [TRIM35]	2.83 ± 0.34	3.18 ± 0.26		
ERPPPPPSDDLTLLESSSSYKNLT [MCOLN1]	5 ± 0.21	4.93 ± 0.21		
NSWMGSQGPMSQRRENYGVPPRRA [RBMY1A1]	4.65 ± 0.26	4.28 ± 0.16		
QGLIRAGKVEAQHILASAPTDRNL [PYCR3]	3.96 ± 0.16	4.07 ± 0.4		
ARYYLVQGLIEDCQLALQQKRETL [KCTD13]	2.11 ± 0.19	2.19 ± 0.24		
ILHGTRGELLLDVAWHPVRPIIAS [RBBP5]	2.51 ± 0.33	2.52 ± 0.25		
ATETQALAQRTQQDSTRTVGERLQ [TEKT4]	5.14 ± 0.43	5.43 ± 0.15		

Sequence	protein stability index [1]	protein stability index [2]	protein stability index (treatment: DMSO, c terminus: native)	protein stability index (treatment: MLN4924 1 uM, 8 h, c terminus: native)
SSYVASIVDGGESRSEKGDSSRY [RBMY1A1]			4.35 ± 0.28	4.27 ± 0.35
IIVTIMASQSLGSPMYFFLASLSF [OR4A15]	3.29 ± 0.57	3.13 ± 0.2		
QTAVQFQQYAAQQYPGNYEQQQIL [ACBD3]	3.71 ± 0.22	3.61 ± 0.23		
CGGYNGEVILGDIWKLNLQTFQWV [KLHDC10]	2.44 ± 0.85	2.11 ± 0.71		
VWKYFGFDTNAEGCILQWKKIYCR [ZBED1]	2.37 ± 0.56	2.2 ± 0.41		
KESGQEGVDSMAEEGTSDSNTGSE [SMARCE1]	5.01 ± 0.61			
ILTEETEVKGTLEGDVCGVEPPGP [PBXIP1]	5.14 ± 0.39	5.42 ± 0.24		
LGALKPLPACEFEMGGSEGIVESI [NETO1]	4.28 ± 0.2	4.31 ± 0.25		
YSGGGYYLDLPGSRQGSAEALRAL [PKD2L1]	2.5 ± 0.48	2.92 ± 0.89		
SLQEEPVEGFRITLVDESDLYNWE [UBE2R2]	3.66 ± 0.49	3.58 ± 0.4		
AIIRTPPKSPATPKQLRLINQPLP [MAP2]	3.13 ± 0.19	3.15 ± 0.21		
SPINSPARGTPSPKRMPSGRGGRD [FSD1]	5.22 ± 0.15	5.04 ± 0.35		
FQVNKLMKKIKKLENDTISKQLTL [CCDC6]	2.26 ± 0.12	2.38 ± 0.33		
DELQQSFQKSHNSLQRWEHLKKVA [PRIM1]	3.76 ± 0.38	3.88 ± 0.45		
KLMKNIRFPLMTPQELINYVQTVD [KLHL13]	2.87 ± 0.18	2.82 ± 0.19		
GPSHPDTSYYIRYRGAVYADSGNF [FEM1C]	2.11 ± 0.45	2.54 ± 0.35		
KDARQWFAELSVDMEKILEIIRVI [CCNC]	2.24 ± 0.38	2.15 ± 0.35		
TLDPNGKTCSRVDHCAQQDHGCEQ [MATN2]	4.03 ± 0.25	4.16 ± 0.22		
KLVDAIVSGDTSKLMKILQPQDVD [RIPK4]	2.51 ± 0.31	2.38 ± 0.64		
AAAALFGGKKDKARYIDTHNRVSK [PLK2]	3.37 ± 0.22	3.14 ± 0.39		
RLEALSTERDEIEDVKCQEDQKLQ [TRIM15]	5.21 ± 0.32	5.66 ± 0.16		
LAQQLCTALLFLATPELSIIHCDL [DYRK1B]	3.04 ± 0.42	3.23 ± 0.42		
RKAITEAANAARHVAPEIRELLTQ [PWWP2B]	4.06 ± 0.29	4.05 ± 0.079		

Sequence	protein stability index [1]	protein stability index [2]	protein stability index (treatment: DMSO, c terminus: native)	protein stability index (treatment: MLN4924 1 uM, 8 h, c terminus: native)
PASGSGADSEPARHIFSFSWLNSL [TRIM55]	2.36 ± 0.16	2.5 ± 0.21		
DLQNLLGFTPEELHAILGVQPDTE [ETS2]	3.25 ± 0.21	3.45 ± 0.29		
LDGAGLMGFVPHNGSLYGQASSER [ADAMTSL2]	4.32 ± 0.67	3.58 ± 0.95		
QLQAARNEYLLNLVATNAHLDHYY [FCHSD1]	2.58 ± 0.44	2.55 ± 0.73		
GCRLPSISSTTCGRQLEKVPEKRD [SPATS1]	3.98 ± 0.36	3.84 ± 0.22		
PVQGSSEDNLSLVCLPRSEDDDCD [DRICH1]	5.62 ± 0.2	5.53 ± 0.21		
GHRYPCFFNTLHVGGTIRTCQKFL [POP5]	2.23 ± 0.48	2.03 ± 0.21		
GLWSRISHLVLPVQPVSSIEEQGC [TOR1AIP2]	2.44 ± 0.26	2.64 ± 0.38		
LKAHAEEKPPSGTKEKKHQCDHCE [PLAGL1]	5.38 ± 0.22	5.46 ± 0.098		
EVEWTEDLALDLGPQSRELTLKVL [C2CD2L]	3.44 ± 0.19	3.6 ± 0.36		
LGSIFQQLAHMVKEQEETIQRIDE [STX5]	4.48 ± 0.2	4.26 ± 0.098		
TIFSASNYYEVGSNRGAYVKLGPA [PPEF2]	2.39 ± 0.5	2.66 ± 0.3		
RAACFDGHLEIVKYLVEHKADLEV [FEM1C]	2.59 ± 0.31	2.66 ± 0.58		
IRLYGLQAGRLLWEQELYSQLVYS [WAS]	3.11 ± 0.55	2.7 ± 0.38		
GGGLLKYSNLLVRDFRPTDQEEIK [TENT5C]	3.79 ± 0.32	3.75 ± 0.6		
GRIIAVFKPKNEEPYGHLNPKWTK [PI4K2A]	2.09 ± 0.24	2.2 ± 0.44		
MSVILSMDNNRNLDLDSIIDEVRT [KRT71]	2.61 ± 0.22	2.52 ± 0.59		
HFGWYLGWGDCVWLPYLYTLQGLY [DHCR7]	3.09 ± 0.84	3.29 ± 0.11		
MGVNAVHWFRKGLRLHDNPALKEC [CRY1]	2.53 ± 0.23	2.54 ± 0.31		
FGASAAGGLSPVTNLTVTMDQLQG [CDC25A]	3.65 ± 0.27	3.7 ± 0.46		
